From patent US20040210042A1 (published 2004)
Ends that are not written are not given here.

Biological target: T1, polypeptide translated from the polynucleotide of SEQ ID NO: 62 (human, UniProt Q05513 356-592)
T1 construct: retested as a pGBKT7 fusion in yeast AH109
T1 sequence: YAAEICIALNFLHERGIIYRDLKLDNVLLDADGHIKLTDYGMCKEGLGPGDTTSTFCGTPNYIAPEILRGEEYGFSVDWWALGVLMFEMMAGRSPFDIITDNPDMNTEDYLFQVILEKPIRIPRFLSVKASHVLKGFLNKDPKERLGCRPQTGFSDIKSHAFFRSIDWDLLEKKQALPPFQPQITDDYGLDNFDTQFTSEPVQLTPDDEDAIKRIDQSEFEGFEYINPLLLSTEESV
Assay: yeast two-hybrid screen, LexA system, histidine and LacZ reporters, human kidney library
Excerpt: Then, the Human kidney […] LexA library (manufactured by Clontech Co., Ltd.) was introduced to the above-described strain and 10⁶ colonies were screened. At the first screening, a histidine-deficient medium was used and about 200 colonies were selected based on the expression of a histidine gene, which was a reporter of the interaction. At the second screening, 31 colonies were obtained based on the expression of LacZ, which was another reporter of the interaction. Finally, 31 clones each of which had been confirmed to surely have two kinds of reporter activities were selected. The above procedures were carried out on the basis of protocols of the yeast two-hybrid method from Invitrogen Co., Ltd. and Clontech Co., Ltd.
The library vectors were recovered from the yeast colonies selected as described above, and the nucleotide sequences were analyzed using the DNA sequencer (the same as above). The nucleotide sequences are shown in SEQ ID NOS: 33 to 63 in the Sequence Listing.

- binding result: binds
B1: cytoplasmic domain of RAGE (receptor for advanced glycation endproduct) (receptor, UniProt Q15109 364-404, looked up)
chain: QRRQRRGEERKAPENQEEEEERAELNQSEEPEAGESSTGGP
modifications: not fully specified
notes: domain: cytoplasmic domain; also called RAGECD; RAGECD fragments
